Measured values: patent US20200231974A1 (published 2020)

B1: HBD4.1.S9-5.E3 (SEQ0717 and SEQ0718) (TCR, V domains shown)
Valpha: SQQGEEDPQALSIQEGENATMNCSYKTSINNLQWYRQNSGRGLVHLILIRSNEREKHSGRLRVTLDTSKKSSSLLITASRAADTASYFCATELRMDSSYKLIFGSGTRLLVRP
Vbeta: DTGVSQNPRHKITKRGQNVTFRCDPISEHNRLYWYRQTLGQGPEFLTYFQNEAQLEKSRLLSDRFSAERPKGSFSTLEIQRTEQGDSAMYLCASSLREGRLPETQYFGPGTRLLVL
B2: HBD4.1.S9-2.A6 (SEQ0709 and SEQ0710) (TCR, V domains shown)
Valpha: AQKITQTQPGMFVQEKEAVTLDCTYDTSDQSYGLFWYKQPSSGEMIFLIYQGSYDEQNATEGRYSLNFQKARKSANLVISASQLGDSAMYFCAMREGMDSSYKLIFGSGTRLLVRP
Vbeta: DTGVSQNPRHKITKRGQNVTFRCDPISEHNRLYWYRQTLGQGPEFLTYFQNEAQLEKSRLLSDRFSAERPKGSFSTLEIQRTEQGDSAMYLCASSLHDRGARTEAFFGQGTRLTVV
B3: HBD4.1.S9-1.D5 (SEQ0707 and SEQ0708) (TCR, V domains shown)
Valpha: DAKTTQPPSMDCAEGRAANLPCNHSTISGNEYVYWYRQIHSQGPQYIIHGLKNNETNEMASLIITEDRKSSTLILPHATLRDTAVYYCIVRDRYNTGNQFYFGTGTSLTVIP
Vbeta: EAQVTQNPRYLITVTGKKLTVTCSQNMNHEYMSWYRQDPGLGLRQIYYSMNVEVTDKGDVPEGYKVSRKEKRNFPLILESPSPNQTSLYFCASSLGPSSYEQYFGPGTRLTVT
B4: HBD4.1.S9-7.E5 (SEQ0713 and SEQ0714) (TCR, V domains shown)
Valpha: AQKITQTQPGMFVQEKEAVTLDCTYDTSDQSYGLFWYKQPSSGEMIFLIYQGSYDEQNATEGRYSLNFQKARKSANLVISASQLGDSAMYFCAMRPYTGGFKTIFGAGTRLFVKA
Vbeta: EAQVTQNPRYLITVTGKKLTVTCSQNMNHEYMSWYRQDPGLGLRQIYYSMNVEVTDKGDVPEGYKVSRKEKRNFPLILESPSPNQTSLYFCASSTSPSTARYGYTFGSGTRLTVV
B5: HBD4.1.S9-7.C5 (SEQ0715 and SEQ0716) (TCR, V domains shown)
Valpha: AQSVAQPEDQVNVAEGNPLTVKCTYSVSGNPYLFWYVQYPNRGLQFLLKYITGDNLVKGSYGFEAEFNKSQTSFHLKKPSALVSDSALYFCAVRSRMDSSYKLIFGSGTRLLVRP
Vbeta: DTGVSQNPRHKITKRGQNVTFRCDPISEHNRLYWYRQTLGQGPEFLTYFQNEAQLEKSRLLSDRFSAERPKGSFSTLEIQRTEQGDSAMYLCASSPPDAAYNEQFFGPGTRLTVL

Molecular target: T1, HCMV pp65 peptide on HLA-B*07:02 (human)
T1 peptide: TPRVTGGGAM
Assay: multimer staining

Binding result, recognises:
B1, B2, B3, B4, B5
